In article PMC11633186 one finds stoichiometry N data, which are given here for 1 substance.

This experiment addresses VisAG5 (S. gordonii VisA region containing its 7 G5 domains, residues 138-698, C-terminal His-tag) (Streptococcus gordonii DL1). The experiment can be described thus: SDS-PAGE and western blot against the His-tag (denaturing); purified VisAG5 in Laemmli buffer with 2.5% betamercaptoethanol; size of the band.

“VisAG5 (S. gordonii VisA region containing its 7 G5 domains, residues 138-698, C-terminal His-tag) (domain or fragment)” registered a stoichiometry N of 2.
